system: Escherichia coli TOP10; test: shrunken log2 fold change of peptide-encoding DNA abundance (4.5 h post-induction vs induction); higher = less antimicrobial activity (less host growth inhibition); conditions: time post-induction: 4.5 h; library: site-saturation at positions 5, 18, 19, 20
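Note: peptides expressed intracellularly from a pBAD plasmid library in pooled LB shake-flask culture, induced with 0.3% L-arabinose, DNA abundance read by NGS, three biological replicates, DESeq2 with apeglm shrinkage.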

Row | Sequence | shrunken log2 fold change
1 | RRIRNRPPRLPRPRPRPAQDPRP | 0.288
2 | RRIRNRPPRLPRPRPRPAQQPRP | 0.017
3 | RRIRNRPPRLPRPRPRPAQYPRP | 0.103
4 | RRIRNRPPRLPRPRPRPARGPRP | 0.86
5 | RRIRNRPPRLPRPRPRPARIPRP | -0.0767
6 | RRIRNRPPRLPRPRPRPARTPRP | 0.139
7 | RRIRNRPPRLPRPRPRPARYPRP | 0.0763
8 | RRIRNRPPRLPRPRPRPATVPRP | -0.17
9 | RRIRNRPPRLPRPRPRPAVMPRP | -0.0474
10 | RRIRNRPPRLPRPRPRPAVNPRP | -0.169
11 | RRIRNRPPRLPRPRPRPAVSPRP | -0.203
12 | RRIRNRPPRLPRPRPRPAWEPRP | 0.247
13 | RRIRNRPPRLPRPRPRPCAEPRP | -0.169
14 | RRIRNRPPRLPRPRPRPCALPRP | -0.135
15 | RRIRNRPPRLPRPRPRPCCCPRP | -0.0783
16 | RRIRNRPPRLPRPRPRPCCWPRP | -0.0688
17 | RRIRNRPPRLPRPRPRPCDEPRP | -0.035
18 | RRIRNRPPRLPRPRPRPCDIPRP | -0.0262
19 | RRIRNRPPRLPRPRPRPCDTPRP | -0.0137
20 | RRIRNRPPRLPRPRPRPCFPPRP | -0.312
21 | RRIRNRPPRLPRPRPRPCFVPRP | -0.147
22 | RRIRNRPPRLPRPRPRPCGVPRP | -0.00664
23 | RRIRNRPPRLPRPRPRPCHGPRP | -0.00208
24 | RRIRNRPPRLPRPRPRPCHKPRP | -0.00663
25 | RRIRNRPPRLPRPRPRPCIFPRP | -0.697

Row | Sequence | shrunken log2 fold change
26 | RRIRNRPPRLPRPRPRPCIGPRP | 0.00845
27 | RRIRNRPPRLPRPRPRPCMFPRP | -0.68
28 | RRIRNRPPRLPRPRPRPCMSPRP | -0.108
29 | RRIRNRPPRLPRPRPRPCPDPRP | -0.0721
30 | RRIRNRPPRLPRPRPRPCRFPRP | -0.0153
31 | RRIRNRPPRLPRPRPRPCRNPRP | -0.437
32 | RRIRNRPPRLPRPRPRPCRQPRP | -0.065
33 | RRIRNRPPRLPRPRPRPCSQPRP | -0.0135
34 | RRIRNRPPRLPRPRPRPCTVPRP | -0.8
35 | RRIRNRPPRLPRPRPRPCVPPRP | -0.00911
36 | RRIRNRPPRLPRPRPRPCWKPRP | -0.0657
37 | RRIRNRPPRLPRPRPRPCWWPRP | 0.0782
38 | RRIRNRPPRLPRPRPRPDACPRP | -0.0102
39 | RRIRNRPPRLPRPRPRPDCAPRP | 0.315
40 | RRIRNRPPRLPRPRPRPDCDPRP | -0.132
41 | RRIRNRPPRLPRPRPRPDCFPRP | -0.306
42 | RRIRNRPPRLPRPRPRPDEQPRP | -0.0726
43 | RRIRNRPPRLPRPRPRPDFEPRP | -0.0968
44 | RRIRNRPPRLPRPRPRPDGVPRP | 0.221
45 | RRIRNRPPRLPRPRPRPDIPPRP | -0.588
46 | RRIRNRPPRLPRPRPRPDKDPRP | -0.253
47 | RRIRNRPPRLPRPRPRPDKPPRP | -0.14
48 | RRIRNRPPRLPRPRPRPDLTPRP | -0.112
49 | RRIRNRPPRLPRPRPRPDMEPRP | -0.0836
50 | RRIRNRPPRLPRPRPRPDNKPRP | -1.35

Row | Sequence | shrunken log2 fold change
51 | RRIRNRPPRLPRPRPRPDNWPRP | -0.532
52 | RRIRNRPPRLPRPRPRPDQKPRP | -0.000687
53 | RRIRNRPPRLPRPRPRPDQYPRP | -0.337
54 | RRIRNRPPRLPRPRPRPDRHPRP | 0.0343
55 | RRIRNRPPRLPRPRPRPDVYPRP | -0.0277
56 | RRIRNRPPRLPRPRPRPDWMPRP | -0.0128
57 | RRIRNRPPRLPRPRPRPDWTPRP | -0.0129
58 | RRIRNRPPRLPRPRPRPECLPRP | 0.254
59 | RRIRNRPPRLPRPRPRPECRPRP | 0.263
60 | RRIRNRPPRLPRPRPRPEDLPRP | -0.00079
61 | RRIRNRPPRLPRPRPRPEFRPRP | -0.107
62 | RRIRNRPPRLPRPRPRPEGEPRP | 0.481
63 | RRIRNRPPRLPRPRPRPEGFPRP | 0.0136
64 | RRIRNRPPRLPRPRPRPEHLPRP | 0.0408
65 | RRIRNRPPRLPRPRPRPEIHPRP | 0.116
66 | RRIRNRPPRLPRPRPRPEILPRP | -0.0178
67 | RRIRNRPPRLPRPRPRPEKKPRP | -0.113
68 | RRIRNRPPRLPRPRPRPEKMPRP | -0.00664
69 | RRIRNRPPRLPRPRPRPEKWPRP | -0.0101
70 | RRIRNRPPRLPRPRPRPELDPRP | 0.0611
71 | RRIRNRPPRLPRPRPRPELWPRP | 0.604
72 | RRIRNRPPRLPRPRPRPELYPRP | 0.23
73 | RRIRNRPPRLPRPRPRPEMCPRP | 0.00911
74 | RRIRNRPPRLPRPRPRPEMLPRP | 0.0345
75 | RRIRNRPPRLPRPRPRPEMMPRP | 0.317

Row | Sequence | shrunken log2 fold change
76 | RRIRNRPPRLPRPRPRPEMVPRP | -0.0225
77 | RRIRNRPPRLPRPRPRPENEPRP | -0.00386
78 | RRIRNRPPRLPRPRPRPENPPRP | 0.0192
79 | RRIRNRPPRLPRPRPRPEPCPRP | -0.0302
80 | RRIRNRPPRLPRPRPRPEPVPRP | -0.0258
81 | RRIRNRPPRLPRPRPRPEQIPRP | -0.0196
82 | RRIRNRPPRLPRPRPRPEQKPRP | -0.00208
83 | RRIRNRPPRLPRPRPRPEQRPRP | 0.00383
84 | RRIRNRPPRLPRPRPRPERCPRP | 0.0334
85 | RRIRNRPPRLPRPRPRPERMPRP | -0.0351
86 | RRIRNRPPRLPRPRPRPETQPRP | 0.162
87 | RRIRNRPPRLPRPRPRPEVRPRP | 0.292
88 | RRIRNRPPRLPRPRPRPEWLPRP | 0.226
89 | RRIRNRPPRLPRPRPRPEYQPRP | 0.00318
90 | RRIRNRPPRLPRPRPRPFCGPRP | -0.108
91 | RRIRNRPPRLPRPRPRPFCKPRP | -0.835
92 | RRIRNRPPRLPRPRPRPFFIPRP | -0.586
93 | RRIRNRPPRLPRPRPRPFGCPRP | -0.128
94 | RRIRNRPPRLPRPRPRPFGKPRP | -0.0788
95 | RRIRNRPPRLPRPRPRPFGYPRP | -0.377
96 | RRIRNRPPRLPRPRPRPFHEPRP | -0.00822
97 | RRIRNRPPRLPRPRPRPFICPRP | -0.38
98 | RRIRNRPPRLPRPRPRPFKEPRP | -0.161
99 | RRIRNRPPRLPRPRPRPFKMPRP | -0.258
100 | RRIRNRPPRLPRPRPRPFKQPRP | -0.0135

Row | Sequence | shrunken log2 fold change
101 | RRIRNRPPRLPRPRPRPFLWPRP | -0.199
102 | RRIRNRPPRLPRPRPRPFMAPRP | -0.513
103 | RRIRNRPPRLPRPRPRPFNFPRP | 0.125
104 | RRIRNRPPRLPRPRPRPFNRPRP | -0.111
105 | RRIRNRPPRLPRPRPRPFPDPRP | -0.00602
106 | RRIRNRPPRLPRPRPRPFPHPRP | -0.0462
107 | RRIRNRPPRLPRPRPRPFPQPRP | -0.186
108 | RRIRNRPPRLPRPRPRPFRVPRP | -0.17
109 | RRIRNRPPRLPRPRPRPFRWPRP | 0.0512
110 | RRIRNRPPRLPRPRPRPFRYPRP | -0.591
111 | RRIRNRPPRLPRPRPRPFSCPRP | -0.03
112 | RRIRNRPPRLPRPRPRPFSNPRP | -0.214
113 | RRIRNRPPRLPRPRPRPFTAPRP | 0.613
114 | RRIRNRPPRLPRPRPRPFTWPRP | -0.62
115 | RRIRNRPPRLPRPRPRPFWGPRP | -0.157
116 | RRIRNRPPRLPRPRPRPFYLPRP | -0.0716
117 | RRIRNRPPRLPRPRPRPGACPRP | 0.0367
118 | RRIRNRPPRLPRPRPRPGCFPRP | 0.126
119 | RRIRNRPPRLPRPRPRPGCKPRP | -0.00214
120 | RRIRNRPPRLPRPRPRPGCMPRP | 0.0522
121 | RRIRNRPPRLPRPRPRPGCVPRP | 0.634
122 | RRIRNRPPRLPRPRPRPGEDPRP | -0.376
123 | RRIRNRPPRLPRPRPRPGEVPRP | -0.121
124 | RRIRNRPPRLPRPRPRPGFSPRP | 0.0167
125 | RRIRNRPPRLPRPRPRPGGKPRP | -0.101

Row | Sequence | shrunken log2 fold change
126 | RRIRNRPPRLPRPRPRPGIGPRP | 0.239
127 | RRIRNRPPRLPRPRPRPGINPRP | -0.253
128 | RRIRNRPPRLPRPRPRPGIRPRP | 0.0989
129 | RRIRNRPPRLPRPRPRPGLVPRP | 0.171
130 | RRIRNRPPRLPRPRPRPGNIPRP | -0.161
131 | RRIRNRPPRLPRPRPRPGNTPRP | -0.896
132 | RRIRNRPPRLPRPRPRPGPLPRP | 0.0198
133 | RRIRNRPPRLPRPRPRPGRQPRP | 0.0171
134 | RRIRNRPPRLPRPRPRPGVCPRP | 0.241
135 | RRIRNRPPRLPRPRPRPGWDPRP | -0.00506
136 | RRIRNRPPRLPRPRPRPGYDPRP | 0.166
137 | RRIRNRPPRLPRPRPRPGYMPRP | -0.281
138 | RRIRNRPPRLPRPRPRPHAFPRP | -0.0636
139 | RRIRNRPPRLPRPRPRPHAHPRP | -0.0247
140 | RRIRNRPPRLPRPRPRPHAKPRP | -0.0658
141 | RRIRNRPPRLPRPRPRPHAQPRP | -0.835
142 | RRIRNRPPRLPRPRPRPHGHPRP | -0.0841
143 | RRIRNRPPRLPRPRPRPHIEPRP | -0.195
144 | RRIRNRPPRLPRPRPRPHIGPRP | -0.0161
145 | RRIRNRPPRLPRPRPRPHNAPRP | -0.175
146 | RRIRNRPPRLPRPRPRPHPHPRP | -0.576
147 | RRIRNRPPRLPRPRPRPHQGPRP | -0.0861
148 | RRIRNRPPRLPRPRPRPHQSPRP | -0.104
149 | RRIRNRPPRLPRPRPRPHRKPRP | 0.0299
150 | RRIRNRPPRLPRPRPRPHSAPRP | -0.0468
